Substitutions are numbered along the chain they refer to. Blank lines part the entries; values can stand above or below the binder they belong to.
Target: T1, BCMA (Homo sapiens (Human), UniProt Q02223 1-54, limits assumed)
T1 sequence: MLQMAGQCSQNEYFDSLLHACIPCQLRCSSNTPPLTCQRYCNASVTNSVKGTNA
Experiment: ELISA, format not described
Design: unit not given here

- ELISA_avg: 3.28
B3: D-domain SEQ ID NO: 145 (designed binder)
chain: MGSWEEFYGRLSAIQDRLWALGGSEAELAAFEKEIAAFESELQAYKGKGNPEVEWLRMHAAVIRRALQAYRHN

- ELISA_avg: 7.56
B8: D-domain SEQ ID NO: 197 (designed binder)
chain: MGSWSEFWVRLGAIRERLDALGGSEAELAAFEKEIAAFESELQAYKGKGNPEVEKLRYTAATIRRFLQAYRHN
notes: also called bc40

- ELISA_avg: 23.5
B9: D-domain SEQ ID NO: 196 (designed binder)
chain: B8 chain with E16D, K55A, Y58V, T62Q, R65H, F66Y

- ELISA_avg: 14.6
B10: D-domain SEQ ID NO: 207 (designed binder)
chain: B8 chain with S5V, V9N, R15Y, E16D, D19E, Y58H, T62V, R65L, F66Y

- ELISA_avg: 12.5
B11: D-domain SEQ ID NO: 205 (designed binder)
chain: B8 chain with S5T, G12N, E16D, D19E, K55D, Y58H, T62I, R65N, F66Y

- ELISA_avg: 16
B12: D-domain SEQ ID NO: 195 (designed binder)
chain: B8 chain with S5V, V9D, E16D, K55E, Y58N, T62Y, R65T

- ELISA_avg: 16.1
B13: D-domain SEQ ID NO: 202 (designed binder)
chain: B8 chain with V9D, G12T, E16V, T62H, R65K

- ELISA_avg: 12.8
B14: D-domain SEQ ID NO: 204 (designed binder)
chain: MGSWFEFWDRLAAIRDRLEALGGSEAELAAFEKEIAAFESELQAYKGKGNPEVEDLRYVAAKIRVRLQAYRHN

- ELISA_avg: 3.93
B15: D-domain SEQ ID NO: 209 (designed binder)
chain: MGSWEEFDNRLEAIFDRLEALGGSEAELAAFEKEIAAFESELQAYKGKGNPEVEELREFAATIRITLQAYRHN

- ELISA_avg: 4.18
B16: D-domain SEQ ID NO: 193 (designed binder)
chain: B14 chain with F5V, A12G, D16E, D55K, K62V, V65H

- ELISA_avg: 18.8
B18: D-domain SEQ ID NO: 208 (designed binder)
chain: B8 chain with V9E, G12E, R15Y, E16D, D19Y, K55E, Y58R, R65S

- ELISA_avg: 3.07
B19: D-domain SEQ ID NO: 194 (designed binder)
chain: B8 chain with S5V, V9D, D19Q, K55E, Y58A, T59S, T62A, R65I, F66A

- ELISA_avg: 12.5
B20: D-domain SEQ ID NO: 214 (designed binder)
chain: MGSWTEFWARLYAIEMRLFALGGSEAELAAFEKEIAAFESELQAYKGKGNPEVEHLRRVAALIREQLQAYRHN

- ELISA_avg: 5.22
B22: D-domain SEQ ID NO: 185 (designed binder)
chain: B8 chain with S5V, V9D, D19Q, T62A, R65H, F66Y

- ELISA_avg: 19.9
B23: D-domain SEQ ID NO: 206 (designed binder)
chain: B15 chain with E5V, D8W, N9H, E12G, F15Y, E58R, F59T, T62L, I65Q

- ELISA_avg: 8.32
B25: D-domain SEQ ID NO: 148 (designed binder)
chain: MGSWMEFQGRLPAILARLRALGGSEAELAAFEKEIAAFESELQAYKGKGNPEVEHLRDKAAYIRWMLQAYRHN

- ELISA_avg: 15.6
B26: D-domain SEQ ID NO: 153 (designed binder)
chain: B25 chain with Q8N, G9V, P12R, A16D, R19H, H55L, W65F

- ELISA_avg: 5.39
B27: D-domain SEQ ID NO: 150 (designed binder)
chain: B25 chain with M5F, G9N, P12Q, A16F, H55N, W65L

- ELISA_avg: 23.5
B28: D-domain SEQ ID NO: 151 (designed binder)
chain: B25 chain with M5V, Q8D, G9M, P12Q, A16E, K59S, W65L

- ELISA_avg: 13.5
B29: D-domain SEQ ID NO: 152 (designed binder)
chain: B25 chain with M5V, Q8N, G9A, P12D, A16F, K59Q, W65L

- ELISA_avg: 12.8
B31: D-domain SEQ ID NO: 146 (designed binder)
chain: MGSWGEFNLRLVAIHVRLWALGGSEAELAAFEKEIAAFESELQAYKGKGNPEVEFLRSQAANIRAQLQAYRHN

- ELISA_avg: 4.26
B32: D-domain SEQ ID NO: 147 (designed binder)
chain: B31 chain with N8S, L9D, V12E, H15N, V16E, F55E, S58W, N62F, Q66N

- ELISA_avg: 3
B34: D-domain SEQ ID NO: 144 (designed binder)
chain: B3 chain with E5N, G9N, S12H, Q15N, D16L, W55V, M58E, V62I, R65Q

- ELISA_avg: 3.49
B35: D-domain SEQ ID NO: 142 (designed binder)
chain: MGSWHEFRNRLGAIDSRLWALGGSEAELAAFEKEIAAFESELQAYKGKGNPEVETLRARAAMIRSVLQAYRHN

- ELISA_avg: 10.8
B46: D-domain SEQ ID NO: 140 (designed binder)
chain: B35 chain with H5V, N9Y, D15Y, S16H, T55V, A58D, M62T, S65R, V66L

- ELISA_avg: 6.96
B48: D-domain SEQ ID NO: 143 (designed binder)
chain: MGSWTEFYQRLEAINFRLWALGGSEAELAAFEKEIAAFESELQAYKGKGNPEVEVLRDKAALIRLMLQAYRHN

Second part, the binder before the results:

B1: D-domain SEQ ID NO: 138 (designed binder)
chain: MGSWYEFHTRLIAIYVRLWALGGSEAELAAFEKEIAAFESELQAYKGKGNPEVEWLRGDAAKIRGYLQAYRHN
- ELISA_avg: 4.06

B2: D-domain SEQ ID NO: 122 (designed binder)
chain: MGSWLEFHYRLHAIQFRLYALGGSEAELAAFEKEIAAFESELQAYKGKGNPEVETLRHIAALIRNQLQAYRHN
- ELISA_avg: 12.7

B4: D-domain SEQ ID NO: 114 (designed binder)
chain: MGSWTEFHERLQAIWFRLHALGGSEAELAAFEKEIAAFESELQAYKGKGNPEVEELRFRAAIIRLYLQAYRHN
- ELISA_avg: 12.1

B5: D-domain SEQ ID NO: 115 (designed binder)
chain: B4 chain with T5N, H8S, E9G, Q12T, W15K, F16D, H19A, I62V, Y66W
- ELISA_avg: 3.39

B6: D-domain SEQ ID NO: 126 (designed binder)
chain: B4 chain with E9Q, Q12G, W15H, F16A, H19G, E55Y, R59S, I62F, Y66K
- ELISA_avg: 8.87

B7: D-domain SEQ ID NO: 116 (designed binder)
chain: B4 chain with T5V, H8D, Q12V, E55A, F58A, I62Y, L65I, Y66W
- ELISA_avg: 8.96

B17: D-domain SEQ ID NO: 121 (designed binder)
chain: MGSWSEFEERLAAIGSRLFALGGSEAELAAFEKEIAAFESELQAYKGKGNPEVETLRFDAALIRIYLQAYRHN
- ELISA_avg: 4.85

B21: D-domain SEQ ID NO: 120 (designed binder)
chain: B17 chain with S5H, E8Y, E9Y, A12E, G15E, S16Q, F19H
- ELISA_avg: 3.73

B24: D-domain SEQ ID NO: 149 (designed binder)
chain: B25 chain with Q8E
- ELISA_avg: 3.93

B30: D-domain SEQ ID NO: 118 (designed binder)
chain: MGSWYEFEDRLVAIWIRLDALGGSEAELAAFEKEIAAFESELQAYKGKGNPEVEELRYNAAFIRGALQAYRHN
- ELISA_avg: 4.93

B33: D-domain SEQ ID NO: 141 (designed binder)
chain: B35 chain with H5N, R59H, M62I
- ELISA_avg: 4.7

B36: D-domain SEQ ID NO: 127 (designed binder)
chain: MGSWFEFQYRLEAIFYRLLALGGSEAELAAFEKEIAAFESELQAYKGKGKPEVEELRVRAALIRHLLQAYRHN
- ELISA_avg: 17.3

B37: D-domain SEQ ID NO: 129 (designed binder)
chain: MGSWVEFGTRLSAIYNRLWALGGSEAELAAFEKEIAAFESELQAYKGKGNPEVEDLRFEAAIIRIMLQAYRHN
- ELISA_avg: 15.4

B38: D-domain SEQ ID NO: 130 (designed binder)
chain: B37 chain with G8T, T9H, S12D, N16I, D55E, F58H, I62V, I65E, M66E
- ELISA_avg: 13.9

B39: D-domain SEQ ID NO: 139 (designed binder)
chain: B37 chain with V5S, G8S, N16V, D55Y, F58N, E59K, I62S, I65K, M66T
- ELISA_avg: 5.35

B40: D-domain SEQ ID NO: 117 (designed binder)
chain: MGSWSEFGQRLSAIWERLLALGGSEAELAAFEKEIAAFESELQAYKGKGNPEVEALRADAAFIRIWLQAYRHN
- ELISA_avg: 14

B41: D-domain SEQ ID NO: 119 (designed binder)
chain: B40 chain with S5Y, Q9D, L19A, A55Y, A58T, D59H, F62E, I65T, W66I
- ELISA_avg: 8.89

B42: D-domain SEQ ID NO: 123 (designed binder)
chain: MGSWQEFYNRLEAIHMRLFALGGSEAELAAFEKEIAAFESELQAYKGKGNPEVEGLRSDAAPIRDVLQAYRHN
- ELISA_avg: 6.47

B43: D-domain SEQ ID NO: 124 (designed binder)
chain: MGSWNEFHHRLWAIFDRLGALGGSEAELAAFEKEIAAFESELQAYKGKGNPEVEVLRKMAAGIRGGLQAYRHN
- ELISA_avg: 3.88

B44: D-domain SEQ ID NO: 128 (designed binder)
chain: MGSWVEFHARLDAIYTRLGALGGSEAELAAFEKEIAAFESELQAYKGKGNPEVEYLRVLAAHIRISLQAYRHN
- ELISA_avg: 3.8

B45: D-domain SEQ ID NO: 132 (designed binder)
chain: B48 chain with T5V, Y8D, Q9R, E12V, N15Y, F16I, V55A, K59D, M66L
- ELISA_avg: 8.93

B47: D-domain SEQ ID NO: 135 (designed binder)
chain: B1 chain with Y5I, H8D, T9R, I12L, Y15H, W55V, G58A, G65M, Y66E
- ELISA_avg: 13.7

B49: D-domain SEQ ID NO: 136 (designed binder)
chain: MGSWIEFDRRLIAIWIRLWALGGSEAELAAFEKEIAAFESELQAYKGKGNPEVESLRSDAADIRQKLQAYRHN
- ELISA_avg: 9.45

B50: D-domain SEQ ID NO: 137 (designed binder)
chain: B49 chain with I5V, I16V, S55F, D62M, Q65E, K66H
- ELISA_avg: 5.77

B51: D-domain SEQ ID NO: 133 (designed binder)
chain: B49 chain with I5V, I12V, W15Y, S55K, S58Y, D62T, Q65E, K66T
- ELISA_avg: 8

B52: D-domain SEQ ID NO: 134 (designed binder)
chain: B49 chain with I5L, I12T, W15Y, I16L, S55A, S58E, D62M, Q65D, K66M
- ELISA_avg: 9.82

B53: D-domain SEQ ID NO: 131 (designed binder)
chain: MGSWVEFHGRLAAIYVRLFALGGSEAELAAFEKEIAAFESELQAYKGKGNPEVESLRYHAAMIRRNLQAYRHN
- ELISA_avg: 4

B54: D-domain SEQ ID NO: 125 (designed binder)
chain: MGSWYEFHYRLKAINDRLYALGGSEAELAAFEKEIAAFESELQAYKGKGNPEVEYLRYSAAMIRHKLQAYRHN
- ELISA_avg: 6.04
